# Measured values reported in patent US7078174B1, “Screening methods using SOCS box-containing peptides” (The Walter & Eliza Hall Institute of Medical Research, priority 1998, dated 2006).
# “Also recorded” adds a separate entry of the source. Square brackets hold non-standard residues; d marks the D form. Ends that are not written are not given here. Peptide text beside a SMILES is read from it. * marks the point of attachment. Biotin = O=C1N[C@H]2[C@H](CS[C@H]2CCCCC(=O)*)N1; Nle = CCCC[C@H](N)C(=O)O
# Legend:
# SOCS-3 protein = assay: IL-6-induced expression of endogenous SOCS-3 protein in J774 cells; type: cell-based; conditions: LLnL 50 μM, 100 ng/ml murine IL-6, 30–180 min
# Protocol: Mouse macrophage-like J774 cells were grown continuously in DME containing 10% bovine calf serum. The cells were washed once in PBS, twice with DME and starved for 1 h in DME containing 0.1% w/v low-endotoxin bovine serum albumin (BSA; Sigma). The proteasome inhibitor LLnL dissolved in dimethyl sulfoxide (DMSO) or DMSO was added to the cells for 15 min and the cells then stimulated with 100 ng/ml of murine IL-6 for the indicated times.
# Proteins were immunoprecipitated with anti-myc (9E10; WEHI) and protein A-Sepharose or anti-FLAG antibody conjugated to Sepharose (KM5-IC7; WEHI) and separated by sodium dodecyl sulphate-polyacrylamide gel electrophoresis (SDS-PAGE) (Biorad, Hercules, Calif.) under reducing conditions. Proteins were then electrophoretically transferred to PVDF-Plus membranes (Micron Separations Inc. WestBorough, Mass.) and Western blotted as described (8).
# elongins B and C [1] = target: T1, elongins B and C (Mus musculus, UniProt P62869+P83940); assay: Affinity purification of SOCS box-binding proteins from M1 cell lysates on GST-SOCS box Sepharose; set-up: species or system murine; conditions: mass spectrometry and Western blot, not seen with GST control
# T1 construct: endogenous in cells; host or cells: M1 murine monocytic leukemic cells
# Protocol: DNA fragments encoding the SOCS boxes from mouse SOCS-1 (residues 172–212) and SOCS-3 (residues 186–225) with an N-terminal linker sequence (EGKSSGSGSESKVD) (SEQ ID NO:3) were generated by PCR and cloned into the bacterial expression vector pGEX-2T (9). The GST fusion proteins were purified by affinity chromatography on glutathione Sepharose 4B (Amersham Pharmacia Biotec) and affinity resins were prepared by covalently coupling 1 mg of purified proteins to 1 ml of NHS-activated Sepharose resin (Amersham Pharmacia Biotec). Before use, the affinity resins were washed with elution buffer (0.5% w/v SDS, 50 mM DTT, 50 mM Tris-HCl, pH 8.0 and 150 mM NaCl) and equilibrated in lysis buffer (0.5% w/v Nonidet P-40, 10 mM Tris-HCl, pH 7.5 and 100 mM NaCl).
# M1 cells (2×10^10) were lysed on ice for 30 min in 100 ml of lysis buffer supplemented with protease inhibitors (Complete Cocktail tablets; Boehringer Mannheim, Mannheim, Germany), 1 mM PMSF, 1 mM Na3VO4 and 1 mM NaF. The total cell lysate was centrifuged at 15,000 rpm (SS34 rotor) for 15 min at 4° C. and the clarified supernatant pre-incubated with 1 ml of GST-Sepharose resin for 2 h at 4° C. Half the GST-Sepharose-depleted M1 cell lysate was incubated with 1 ml of GST-SOCS-1 SOCS box- and the other half with GST-SOCS-3 SOCS box-Sepharose resin for 2 h at 4° C. […]
# elongin C = target: T2, elongin C (Mus musculus, UniProt P83940); assay: Competition of SOCS-1 SOCS box/elongin C interaction in M1 cellular extracts; type: binding, murine; conditions: 80 mM competing non-biotinylated SOCS box peptide, SDS-PAGE, silver staining
# T2 construct: endogenous in cells; host or cells: M1 murine monocytic leukemic cells (lysate)
# Protocol: (§1) Following biotinylation, the peptide was reduced by treatment with 5 mM DTT. Typically, peptide was coupled to streptavidin-agarose resin (Pierce immunopure; 1–2 mg streptavidin/mL resin) by incubating equal volumes of resin and 1 mg/mL peptide for 1 h, followed by extensive washing.
# (§2) M1 cells were lysed as previously described, except at a concentration of 10^9 cells/mL of lysis buffer. Streptavidin-agarose binding proteins were precleared from lysate by treating overnight at 4° C. with streptavidin-agarose resin (100 μL of resin/mL lysate). SOCS box peptides (SOCS-1, ASB-2 and WSB-2) were solubilized in water at 10 mg/mL, and aliquots of these, or water alone, were added to 350 μL fractions of cleared lysate, followed by incubation for 3 h at 4° C. These lysates were then added to 30 μL of SOCS-1 SOCS box peptide resin and incubated a further 2 h at 4° C. The resin was extensively washed with lysis buffer and bound proteins were eluted with 20 μL of 4×SDS sample buffer. Proteins were separated by SDS-PAGE on a 4–15% reducing gel.
# elongins B and C [2] = target: T1, elongins B and C; assay: Affinity purification from M1 cellular extracts with biotinylated SOCS-1 SOCS box peptide on streptavidin-agarose; type: binding, murine; conditions: streptavidin-agarose bound peptide; mass spectrometry
# Protocol: as §1, §2
# T2 sequence (P83940 whole entry): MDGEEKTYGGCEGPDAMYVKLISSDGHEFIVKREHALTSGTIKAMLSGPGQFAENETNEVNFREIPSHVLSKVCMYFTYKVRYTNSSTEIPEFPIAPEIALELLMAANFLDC
# T2 sequence (P62869 whole entry partner): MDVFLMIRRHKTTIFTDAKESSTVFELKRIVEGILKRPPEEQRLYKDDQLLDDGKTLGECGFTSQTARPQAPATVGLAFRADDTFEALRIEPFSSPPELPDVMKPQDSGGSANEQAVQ
# T1 sequence (P83940 whole entry): as the sequence (P83940 whole entry) above
# T1 sequence (P62869 whole entry): as the sequence (P62869 whole entry partner) above
compound,measurement,setting,value
"CCCC[C@@H](C=O)NC(=O)[C@H](CC(C)C)NC(=O)[C@H](CC(C)C)NC(C)=O [LLnL, N-acetyl-L-leucinyl-L-leucinyl-norleucinal] (Ac-Leu-Leu-[Nle]-aldehyde)",SOCS-3 protein levels after IL-6 stimulation,SOCS-3 protein,continual increase in SOCS-3 protein levels
"GST-SOCS-1 SOCS box: GST fusion protein with SOCS box of mouse SOCS-1 (residues 172–212) and N-terminal linker, coupled to Sepharose (EGKSSGSGSESKVDVRPLQELCRQRIVAAVGRENLARIPLNPVLRDYLSSFPFQI; not fully specified (N-terminus); also: coupled to Sepharose)",elongins B and C in eluates from affinity resin,elongins B and C [1],both elongins were present in eluates
"GST-SOCS-3 SOCS box: GST fusion protein with SOCS box of mouse SOCS-3 (residues 186–225) and N-terminal linker, coupled to Sepharose (EGKSSGSGSESKVDVATLQHLCRKTVNGHLDSYEKVTQLPGPIREFLDQYDAPL; not fully specified (N-terminus); also: coupled to Sepharose)",elongins B and C in eluates from affinity resin,elongins B and C [1],both elongins were present in eluates
SOCS-1 SOCS box peptide: Synthetic peptide fragment of murine SOCS-1 corresponding to the SOCS box and five upstream N-terminal residues (LRQRRVRPLQELCRQRIVAAVGRENLARIPLNPVLRDYLSSFPFQI),competition of elongin C binding to immobilized SOCS-1 SOCS box peptide,elongin C,competed for this interaction; also recorded: prevented binding of elongin C to immobilized SOCS-1 SOCS box
WSB-2 SOCS box peptide: Synthetic peptide fragment of murine WSB-2 corresponding to the SOCS box and five upstream N-terminal residues (TAPRVLSSLKHLCRKALRSFLTTYQVLALPIPKKMKEFLTYRTF),competition of elongin C binding to immobilized SOCS-1 SOCS box peptide,elongin C,competed for this interaction; also recorded: prevented binding of elongin C to immobilized SOCS-1 SOCS box
"biotinylated SOCS-1 SOCS box peptide: SOCS-1 SOCS box peptide biotinylated at the amino terminus with sulfosuccinimidobiotin, coupled to streptavidin-agarose (Biotin-LRQRRVRPLQELCRQRIVAAVGRENLARIPLNPVLRDYLSSFPFQI; also: coupled to streptavidin-agarose)",interacting proteins identified in M1 cellular extracts,elongins B and C [2],identification by mass spectrometry of elongins B and C as interacting proteins
